Results published in patent US20230039157A1.

T1: TF219
T1 chain: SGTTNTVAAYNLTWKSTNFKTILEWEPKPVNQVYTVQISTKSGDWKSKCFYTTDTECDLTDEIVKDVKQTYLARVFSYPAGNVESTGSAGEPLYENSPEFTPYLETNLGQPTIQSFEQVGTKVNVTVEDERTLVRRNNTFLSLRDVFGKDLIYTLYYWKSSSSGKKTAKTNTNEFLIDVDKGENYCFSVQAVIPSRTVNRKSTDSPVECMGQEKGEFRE

B1: Factor VIIa (protein)
chain: ANAFLEELRPGSLERECKEEQCSFEEAREIFKDAERTKLFWISYSDGDQCASSPCQNGGSCKDQLQSYICFCLPAFEGRNCETHKDDQLICVNENGGCEQYCSDHTGTKRSCRCHEGYSLLADGVSCTPTVEYPCGKIPILEKRNASKPQGRIVGGKVCPKGECPWQVLLLVNGAQLCGGTLINTIWVVSAAHCFDKIKNWRNLIAVLGEHDLSEHDGDEQSRRVAQVIIPSTYVPGTTNHDIALLRLHQPVVLTDHVVPLCLPERTFSERTLAFVRFSLVSGWGQLLDRGATALELMVLNVPRLMTQDCLQQSRKVGDSPNITEYMFCAGYSDGSKDSCKGDSGGPHATHYRGTWYLTGIVSWGQGCATVGHFGVYTRVSQYIEWLQKLMRSEPRPGVLLRAPFP

Legend:
[1] = target: IL-2Rα, IL-2Rβ and common γ chain on CTLL-2 cells; test: cell-based or functional assay
[2] = target: IL-2Rβ and common γ chain on 32Dβ cells; test: cell-based or functional assay
[3] = target: 18t15-12s multi-chain chimeric polypeptide
[4] = target: 21t15-7s multi-chain chimeric polypeptide
[5] = target: 21t15-TGFRs multi-chain chimeric polypeptide
TF219 = target: T1, TF219
[6] = target: mouse (m)21t15 multi-chain chimeric polypeptide

Molecule	EC50 of CTLL-2 cell proliferation (WST1, absorbance at 450 nM) [1]	EC50 of 32Dβ cell proliferation (WST1, absorbance at 450 nM) [2]	FX activation measured by FXa activity (chromogenic substrate S-2765) [3]	FX activation measured by FXa activity (chromogenic substrate S-2765) [4]	FX activation measured by FXa activity (chromogenic substrate S-2765) [5]	FX activation measured by FXa activity (chromogenic substrate S-2765) (TF219)	FX activation measured by FXa activity (chromogenic substrate S-2765) [6]
recombinant IL-2 (from UniProt P60568 21-153) (ligand)	0.548 nM	0.14 nM	–	–	–	–	–
recombinant IL-15 (from UniProt P40933 49-162) (ligand)	–	0.0016 nM	–	–	–	–	–
B1	–	–	TF219 and TF219-containing multi-chain chimeric polypeptides had very low FX activation activity	TF219 and TF219-containing multi-chain chimeric polypeptides had very low FX activation activity	TF219 and TF219-containing multi-chain chimeric polypeptides had very low FX activation activity	TF219 and TF219-containing multi-chain chimeric polypeptides had very low FX activation activity	TF219 and TF219-containing multi-chain chimeric polypeptides had very low FX activation activity
